Measurements as given in patent publication US20220380463A1 (Adimab, published 2022).

Assays:
[1] = target: T1, human CD3 on CD3+ Jurkat cells (human, UniProt P07766 23-207); test: flow cytometry, 100 nM IgG on CD3+ Jurkat cells, pH 6.0
T1 construct: whole, on cells; Native CD3 complex on cells; the other CD3 chains are not specified for this assay; also called Human CD3+ Jurkat
In short: (§1)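 Jurkat cells incubated 20 min on ice with 100 nM yeast-produced IgG in PBS + 0.1% BSA at pH 6.0 or pH 7.4, with all washes and staining at the same pH. Bound antibody detected with anti-human IgG-RPE, dead cells excluded by propidium iodide; MFI measured by flow cytometry.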

[2] = target: T1, human CD3 on CD3+ Jurkat cells; test: flow cytometry, 100 nM IgG on CD3+ Jurkat cells, pH 7.4
In short: as §1

[3] = target: T1, human CD3 on CD3+ Jurkat cells; test: flow cytometry on CD3+ Jurkat cells, ratio of MFI at pH 6.0 to pH 7.4
In short: as §1

T1 sequence (P07766 23-207): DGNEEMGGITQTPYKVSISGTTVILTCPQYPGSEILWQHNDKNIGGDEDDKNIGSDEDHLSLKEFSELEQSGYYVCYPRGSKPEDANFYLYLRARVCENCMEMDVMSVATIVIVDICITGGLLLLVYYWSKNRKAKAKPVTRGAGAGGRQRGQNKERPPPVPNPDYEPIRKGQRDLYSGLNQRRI

MFI pH 6.0 [1] [MFI]	MFI pH 7.4 [2] [MFI]	MFI pH 6.0/MFI pH 7.4 [3]	Binder
244	73	3.3	SAD10319_P03_E08 (ADI-48637) (antibody, V domains shown, IgG; also called Ab21) VH: QVQLVQSGAEVKKPGASVKVSCKASGYTFNDYAMHWVRQAPGQRLEWMGYINGTGATVYSQKFQGRVTITRDTSASTAYMELSSLRSEDTAVYYCARDAYHHYFYDVWSQGTLVTVSS VL: DIVMTQSPDSLAVSLGERATINCKSSQSLLNARTGKNYLAWYQQKPGQPPKLLIYWASTRESGVPDRFSGSGSGTDFTLTISSLQAEDVAVYYCKQSYSRRTFGGGTKVEIK
2000	84	23.8	SAD10319_P03_G08 (ADI-48638) (antibody, V domains shown, IgG; also called Ab22) VH: QVQLVQSGAEVKKPGASVKVSCKASGYTFSSYDMHWVRQAPGQRLEWMGWIDAGTGFTKYSQKFQGRVTITRDTSASTAYMELSSLRSEDTAVYYCARDAYGHYFYDHWGQGTLVTVSS VL: DIVMTQSPDSLAVSLGERATINCKSSQSLLNARTGKNYLAWYQQKPGQPPKLLIYWASTRESGVPDRFSGSGSGTDFTLTISSLQAEDVAVYYCKQSYSRRTFGGGTKVEIK
772	56	13.8	SAD10319_P03_E09 (ADI-48640) (antibody, V domains shown, IgG; also called Ab26) VH: QVQLVQSGAEVKKPGASVKVSCKASGYTFLSYDMHWVRQAPGQRLEWMGWIDAGTGATTYSQKFQGRVTITRDTSASTAYMELSSLRSEDTAVYYCARDAYHHYFYDVWGQGTLVTVSS VL: DIVMTQSPDSLAVSLGERATINCKSSQSLLNARTGKNYLAWYQQKPGQPPKLLIYWASTRESGVPDRFSGSGSGTDFTLTISSLQAEDVAVYYCKQSYSRRTFGGGTKVEIK

Continued, binder first:

Binder	MFI pH 6.0 [1] [MFI]	MFI pH 7.4 [2] [MFI]	MFI pH 6.0/MFI pH 7.4 [3]
SAD10319_P03_C07 (ADI-48634) (antibody, V domains shown, IgG; also called Ab17) VH: QVQLVQSGAEVKKPGASVKVSCKASGYTFESYDMHWVRQAPGQRLEWMGWIDAGTGATTYSQKFQGRVTITRDTSASTAYMELSSLRSEDTAVYYCARDAYHHYFYDVWGQGTLVTVSS VL: DIVMTQSPDSLAVSLGERATINCKSSQSLLNARTGKNYLAWYQQKPGQPPKLLIYWASTRESGVPDRFSGSGSGTDFTLTISSLQAEDVAVYYCKQSYSRRTFGGGTKVEIK	651	44	14.7
SAD10319_P03_A08 (ADI-48636) (antibody, V domains shown, IgG; also called Ab230) VH: QVQLVQSGAEVKKPGASVKVSCKASGYTFTDYDMHWVRQAPGQRLEWMGWIDAGTGLTKYSQKFQGRVTITRDTSASTAYMELSSLRSEDTAVYYCARDHYGHYFYDVWGQGTLVTVSS VL: DIVMTQSPDSLAVSLGERATINCKSSQSLLNARTGKNYLAWYQQKPGQPPKLLIYWASTRESGVPDRFSGSGSGTDFTLTISSLQAEDVAVYYCKQSYSRRTFGGGTKVEIK	897	35	25.9
SAD10319_P03_E07 (ADI-48635) (antibody, V domains shown, IgG; also called Ab17) VH: QVQLVQSGAEVKKPGASVKVSCKASGYTFESYDMHWVRQAPGQRLEWMGWIDAGTGATTYSQKFQGRVTITRDTSASTAYMELSSLRSEDTAVYYCARDAYHHYFYDVWGQGTLVTVSS VL: DIVMTQSPDSLAVSLGERATINCKSSQSLLNARTGKNYLAWYQQKPGQPPKLLIYWASTRESGVPDRFSGSGSGTDFTLTISSLQAEDVAVYYCKQSYSRRTFGGGTKVEIK	623	54	11.6
SAD10319_P03_B09 (ADI-48639) (antibody, V domains shown, IgG; also called Ab24) VH: QVQLVQSGAEVKKPGASVKVSCKASGYTFTEYDMHWVRQAPGQRLEWMGWIDAGTGATVYSQKFQGRVTITRDTSASTAYMELSSLRSEDTAVYYCARDAYGRYFYDHWGQGTLVTVSS VL: DIVMTQSPDSLAVSLGERATINCKSSQSLLNARTGKNYLAWYQQKPGQPPKLLIYWASTRESGVPDRFSGSGSGTDFTLTISSLQAEDVAVYYCKQSYSRRTFGGGTKVEIK	897	55	16.5
